Data published in patent US20220249640A1 (published 2022).

What was measured:
[1] = biological target: T1, PD-1 (soluble, biotinylated, on sensors or coated on plates) (human, UniProt Q15116 25-167, biotinylated (avi tag, Avidity's biotinylation kit) in the Octet assays); assay: ELISA; constant antigen coating
[2] = biological target: T1, PD-1 (soluble, biotinylated, on sensors …); assay: ELISA; variable antigen coating

T1 sequence (Q15116 25-167): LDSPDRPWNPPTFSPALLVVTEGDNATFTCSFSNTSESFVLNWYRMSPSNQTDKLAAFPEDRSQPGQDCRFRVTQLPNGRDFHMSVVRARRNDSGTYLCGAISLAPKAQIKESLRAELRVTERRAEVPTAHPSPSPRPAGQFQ

B1: P4-B3 IgG1 wild type monomer (antibody, V domains shown)
VH: QVQLVQSGGGLVQPGRSLRLSCAASGFTFDDYAMHWVRQAPGKGLEWVSGISWNSGSIGYADSVKGRFTVSRDNAKNSLYLQMNSLRAEDTAVYYCASDYGDKYYYYGMDVWGKGTTVTVSS
VL: QPGLTQPPSASGTPGQRVTISCSGSSSNIGSNTVNWYQQFPGKAPKLLIFNDNQRPSGVPDRFSASKSGTSASLAISGLQSEDEADYYCAAWDGGLNGRGVFGGGTKLTVLG
B1 was tested. Which EC50 [1] did it give?
Its EC50 is 0.0407 µg/mL.

What about the EC50 [2] of the same binder?
The EC50 was 0.514 µg/mL.
